Values of other authors in patent publication US9307769B2, “Method for increasing plant yield, and yield improving compositions” (Plant Health Care, Inc., priority 2011, dated 2016).

Conditions: HR-eliciting fragments, Table 1

| Substance | pI |
| --- | --- |
| HrpNEa-1: HR-eliciting fragment, E. amylovora, amino acid residues 43-70 (GLGGGNQNDTVNQLAGLLTGMMMMMSMM; UniProt Q01099 43-70, looked up, fragment) | 3.09 |
| HrpNEa-2: HR-eliciting fragment, E. amylovora, amino acid residues 140-176 (QNDDSTSGTDSTSDSSDPMQQLLKMFSEIMQSLFGDG; UniProt Q01099 140-176, looked up, fragment) | 3.17 |
| HrpNEch-1: HR-eliciting fragment, E. chrysanthemi, amino acid residues 78-118 (QLGQSFGNGAQGASNLLSVPKSGGDALSKMFDKALDDLLGH; UniProt Q47278 78-118, looked up, fragment) | 5.25 |
| HrpNEch-2: HR-eliciting fragment, E. chrysanthemi, amino acid residues 256-295 (DGWSSPKTDDKSWAKALSKPDDDGMTGASMDKFRQAMGMI; UniProt Q47278 256-295, looked up, fragment) | 4.62 |
| HrpWPss-1: HR-eliciting fragment, P. syringae, amino acid residues 52-96 (LAATMFVMAPVAHDIQQRVHEHPLELSNADKLQSSLKVVIEPLQR; UniProt Q60236 52-96, looked up, fragment) | 4.32 |

Same assay, conditions: building block domains for fusion proteins, Table 2

| Substance | pI |
| --- | --- |
| (NC): building block domain, source HrpNEa140-180 (QNDDSTSGTDSTSDSSDPMQQLLKMFSEIMQSLFGDGQDGT; UniProt Q01099 140-180, looked up, fragment) | 5.01 |
| (NN): building block domain, source HrpNEa40-80 (SALGLGGGNQNDTVNQLAGLLTGMMMMMSMMGGGGLMGGGL; UniProt Q01099 40-80, looked up, fragment) | 6.78 |
